Patent US20250388669A1 (published 2025)
Residue numbers refer to the chain shown, from its start.

T1: B7H3 (UniProt Q5ZPR3 29-466, limits assumed)
T1 sequence (looked up): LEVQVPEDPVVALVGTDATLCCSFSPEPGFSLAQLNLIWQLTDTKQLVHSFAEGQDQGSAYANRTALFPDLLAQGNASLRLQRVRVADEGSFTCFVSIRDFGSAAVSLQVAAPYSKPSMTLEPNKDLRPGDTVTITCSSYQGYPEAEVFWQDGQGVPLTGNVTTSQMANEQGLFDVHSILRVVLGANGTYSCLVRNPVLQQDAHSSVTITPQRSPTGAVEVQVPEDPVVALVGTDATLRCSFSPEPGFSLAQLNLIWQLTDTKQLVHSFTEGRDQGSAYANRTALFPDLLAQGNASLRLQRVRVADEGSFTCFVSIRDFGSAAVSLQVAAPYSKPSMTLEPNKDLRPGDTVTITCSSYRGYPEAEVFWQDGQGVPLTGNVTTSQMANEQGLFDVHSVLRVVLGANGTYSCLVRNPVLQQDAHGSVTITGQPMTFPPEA

T2: CD19 (UniProt P15391 20-556, limits assumed)
T2 construct: whole, on cells
T2 sequence (looked up): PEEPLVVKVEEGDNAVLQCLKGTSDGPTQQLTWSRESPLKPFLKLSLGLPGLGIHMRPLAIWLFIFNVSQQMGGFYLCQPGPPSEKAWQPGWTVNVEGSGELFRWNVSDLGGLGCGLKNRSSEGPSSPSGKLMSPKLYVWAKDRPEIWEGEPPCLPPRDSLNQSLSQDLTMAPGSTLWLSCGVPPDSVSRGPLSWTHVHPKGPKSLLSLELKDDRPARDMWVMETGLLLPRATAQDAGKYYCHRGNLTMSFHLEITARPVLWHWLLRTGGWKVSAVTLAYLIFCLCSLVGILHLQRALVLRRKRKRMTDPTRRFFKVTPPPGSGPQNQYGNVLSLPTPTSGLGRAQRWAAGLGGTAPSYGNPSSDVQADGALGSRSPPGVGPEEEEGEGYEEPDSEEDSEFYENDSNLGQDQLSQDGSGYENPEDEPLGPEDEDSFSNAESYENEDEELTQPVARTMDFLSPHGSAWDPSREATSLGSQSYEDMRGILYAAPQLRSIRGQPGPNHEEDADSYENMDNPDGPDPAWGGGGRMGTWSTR

B1: Ly1965 (bispecific antibody)
chain 1: QVQLVQSGAEVKKPGASVKVSCKASGYTFTSYVMHWVRQKPGQGLEWIGYINPYNEGTESTDKFKGRATMTSDKSTSTVYMELSSLRSEDTAVYYCASIYYGYEGTYFGVWGQGTLVTVSSASTKGPSVFPLAPSSKSTSGGTAALGCLVKDYFPEPVTVSWNSGALTSGVHTFPAVLQSSGLYSLSSVVTVPSSSLGTQTYICNVNHKPSNTKVDKKVEPKSCGGGGSGGGGSGGGGSGGGGSEVQLVESGGGLVQPGGSLRLSCAASGFTFSTYAMNWVRQAPGKGLEWVGRIRSKYNNYATYYADSVKGRFTISRDDSKNSLYLQMNSLKTEDTAVYYCVRHGNFGNSYVSWFAYWGQGTLVTVSSGGGGSDKTHTCPPCPAPEAAGPSVFLFPPKPKDTLMISRTPEVTCVVVDVSHEDPEVKFNWYVDGVEVHNAKTKPREEQYNSTYRVVSVLTVLHQDWLNGKEYKCKVSNKALPAPIEKTISKAKGQPREPQVYTLPPSREEMTKNQVSLWCLVKGFYPSDIAVEWESNGQPENNYKTTPPVLDSDGSFFLYSKLTVDKSRWQQGNVFSCSVMHEALHNHYTQKSLSLSPG
chain 2: QVQLVQSGAEVKKPGASVKVSCKASGYTFTSYVMHWVRQKPGQGLEWIGYINPYNEGTESTDKFKGRATMTSDKSTSTVYMELSSLRSEDTAVYYCASIYYGYEGTYFGVWGQGTLVTVSSASTKGPSVFPLAPSSKSTSGGTAALGCLVKDYFPEPVTVSWNSGALTSGVHTFPAVLQSSGLYSLSSVVTVPSSSLGTQTYICNVNHKPSNTKVDKKVEPKSCGGGGSGGGGSGGGGSGGGGSQAVVTQEPSLTVSPGGTVTLTCRSSTGAVTTSNYANWVQQKPGQAPRGLIGGTNKRAPWTPARFSGSLLGGKAALTITGAQAEDEADYYCALWYSNLWVFGGGTKLTVLGGGGSDKTHTCPPCPAPEAAGPSVFLFPPKPKDTLMISRTPEVTCVVVDVSHEDPEVKFNWYVDGVEVHNAKTKPREEQYNSTYRVVSVLTVLHQDWLNGKEYKCKVSNKALPAPIEKTISKAKGQPREPQVYTLPPSREEMTKNQVSLSCAVKGFYPSDIAVEWESNGQPENNYKTTPPVLDSDGSFFLVSKLTVDKSRWQQGNVFSCSVMHEALHNRFTQKSLSLSPG
light: EIVLTQSPATLSLSPGERATLSCRASSSVSYMHWYQQKPGQAPRPWIYATSNLASGIPARFSGSRSGTDYTLTISSLEPEDFAVYYCQQWSSNTLTFGGGTKVEIKRTVAAPSVFIFPPSDEQLKSGTASVVCLLNNFYPREAKVQWKVDNALQSGNSQESVTEQDSKDSTYSLSSTLTLSKADYEKHKVYACEVTHQGLSSPVTKSFNRGEC
notes: Bispecific B7H3 (two Fabs) / CD3 (central Fv)
B2: Ly2278 (bispecific antibody)
chain 1: QVQLQQSGAELVRPGSSVKISCKASGYAFSSYWMNWVKQRPGQGLEWIGQIWPGDGDTNYNGKFKGKATLTADESSSTAYMQLSSLASEDSAVYFCARRETTTVGRYYYAMDYWGQGTTVTVSSASTKGPSVFPLAPSSKSTSGGTAALGCLVKDYFPEPVTVSWNSGALTSGVHTFPAVLQSSGLYSLSSVVTVPSSSLGTQTYICNVNHKPSNTKVDKKVEPKSCGGGGSGGGGSGGGGSGGGGSEVQLVESGGGLVQPGGSLRLSCAASGFTFSTYAMNWVRQAPGKGLEWVGRIRSKYNNYATYYADSVKGRFTISRDDSKNSLYLQMNSLKTEDTAVYYCVRHGNFGNSYVSWFAYWGQGTLVTVSSGGGGSDKTHTCPPCPAPEAAGPSVFLFPPKPKDTLMISRTPEVTCVVVDVSHEDPEVKFNWYVDGVEVHNAKTKPREEQYNSTYRVVSVLTVLHQDWLNGKEYKCKVSNKALPAPIEKTISKAKGQPREPQVYTLPPSREEMTKNQVSLWCLVKGFYPSDIAVEWESNGQPENNYKTTPPVLDSDGSFFLYSKLTVDKSRWQQGNVFSCSVMHEALHNHYTQKSLSLSPG
chain 2: QVQLQQSGAELVRPGSSVKISCKASGYAFSSYWMNWVKQRPGQGLEWIGQIWPGDGDTNYNGKFKGKATLTADESSSTAYMQLSSLASEDSAVYFCARRETTTVGRYYYAMDYWGQGTTVTVSSASTKGPSVFPLAPSSKSTSGGTAALGCLVKDYFPEPVTVSWNSGALTSGVHTFPAVLQSSGLYSLSSVVTVPSSSLGTQTYICNVNHKPSNTKVDKKVEPKSCGGGGSGGGGSGGGGSGGGGSQAVVTQEPSLTVSPGGTVTLTCRSSTGAVTTSNYANWVQQKPGQAPRGLIGGTNKRAPWTPARFSGSLLGGKAALTITGAQAEDEADYYCALWYSNLWVFGGGTKLTVLGGGGSDKTHTCPPCPAPEAAGPSVFLFPPKPKDTLMISRTPEVTCVVVDVSHEDPEVKFNWYVDGVEVHNAKTKPREEQYNSTYRVVSVLTVLHQDWLNGKEYKCKVSNKALPAPIEKTISKAKGQPREPQVYTLPPSREEMTKNQVSLSCAVKGFYPSDIAVEWESNGQPENNYKTTPPVLDSDGSFFLVSKLTVDKSRWQQGNVFSCSVMHEALHNRFTQKSLSLSPG
light: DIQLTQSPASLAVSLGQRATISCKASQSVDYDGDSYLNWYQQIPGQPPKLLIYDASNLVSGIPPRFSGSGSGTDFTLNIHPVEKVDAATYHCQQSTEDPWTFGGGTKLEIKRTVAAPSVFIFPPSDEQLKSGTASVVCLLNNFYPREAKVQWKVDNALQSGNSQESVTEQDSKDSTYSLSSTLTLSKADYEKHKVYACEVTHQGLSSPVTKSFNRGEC
notes: Bispecific CD19 (two Fabs) / CD3 (central Fv)
B3: Ly1966 (other)
chain 1: QVQLQQSGAELVRPGSSVKISCKASGYAFSSYWMNWVKQRPGQGLEWIGQIWPGDGDTNYNGKFKGKATLTADESSSTAYMQLSSLASEDSAVYFCARRETTTVGRYYYAMDYWGQGTTVTVSSASTKGPSVFPLAPSSKSTSGGTAALGCLVKDYFPEPVTVSWNSGALTSGVHTFPAVLQSSGLYSLSSVVTVPSSSLGTQTYICNVNHKPSNTKVDKKVEPKSCGGGGSGGGGSGGGGSGGGGSEVQLVESGGGLVQPGGSLRLSCAASGFTFSTYAMNWVRQAPGKGLEWVGRIRSKYNNYATYYADSVKGRFTISRDDSKNSLYLQMNSLKTEDTAVYYCVRHGNFGNSYVSWFAYWGQGTLVTVSSGGGGSDKTHTCPPCPAPEAAGPSVFLFPPKPKDTLMISRTPEVTCVVVDVSHEDPEVKFNWYVDGVEVHNAKTKPREEQYNSTYRVVSVLTVLHQDWLNGKEYKCKVSNKALPAPIEKTISKAKGQPREPQVYTLPPSREEMTKNQVSLWCLVKGFYPSDIAVEWESNGQPENNYKTTPPVLDSDGSFFLYSKLTVDKSRWQQGNVFSCSVMHEALHNHYTQKSLSLSPGGGGGSGGGGSGGGGSGGGGSQVQLVQSGAEVKKPGASVKVSCKASGYTFAGFEMHWVRQAPGQGLEWMGAIDPKTGGTDYNQKFKDRVTMTRDTSISTAYMELSRLRSDDTAVYYCARDLGYFDVWGQGTLVTVSS
chain 2: QVQLQQSGAELVRPGSSVKISCKASGYAFSSYWMNWVKQRPGQGLEWIGQIWPGDGDTNYNGKFKGKATLTADESSSTAYMQLSSLASEDSAVYFCARRETTTVGRYYYAMDYWGQGTTVTVSSASTKGPSVFPLAPSSKSTSGGTAALGCLVKDYFPEPVTVSWNSGALTSGVHTFPAVLQSSGLYSLSSVVTVPSSSLGTQTYICNVNHKPSNTKVDKKVEPKSCGGGGSGGGGSGGGGSGGGGSQAVVTQEPSLTVSPGGTVTLTCRSSTGAVTTSNYANWVQQKPGQAPRGLIGGTNKRAPWTPARFSGSLLGGKAALTITGAQAEDEADYYCALWYSNLWVFGGGTKLTVLGGGGSDKTHTCPPCPAPEAAGPSVFLFPPKPKDTLMISRTPEVTCVVVDVSHEDPEVKFNWYVDGVEVHNAKTKPREEQYNSTYRVVSVLTVLHQDWLNGKEYKCKVSNKALPAPIEKTISKAKGQPREPQVYTLPPSREEMTKNQVSLSCAVKGFYPSDIAVEWESNGQPENNYKTTPPVLDSDGSFFLVSKLTVDKSRWQQGNVFSCSVMHEALHNRFTQKSLSLSPGGGGGSGGGGSGGGGSGGGGSDIQMTQSPSSLSASVGDRVTITCRASQDIRSNLNWYQQKPGGAVKLLIYYTSRLHSGVPSRFSGSGSGTDYTLTISSLQPEDFATYFCQQSEKLPRTFGGGTKVEIR
light: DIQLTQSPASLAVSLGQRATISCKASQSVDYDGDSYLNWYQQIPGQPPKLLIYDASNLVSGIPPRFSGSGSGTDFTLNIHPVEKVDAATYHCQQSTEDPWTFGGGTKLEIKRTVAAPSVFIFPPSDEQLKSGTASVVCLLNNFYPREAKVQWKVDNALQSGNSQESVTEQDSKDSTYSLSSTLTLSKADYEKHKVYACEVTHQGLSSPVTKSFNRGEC
notes: Tri-specific antibody CD19 (two Fabs) / CD3 (central Fv) / CD137 (terminal Fv)
B4: Ly1967 (other)
chain 1: B3 chain 1
chain 2: B3 chain 2 with R575H, F576Y
light: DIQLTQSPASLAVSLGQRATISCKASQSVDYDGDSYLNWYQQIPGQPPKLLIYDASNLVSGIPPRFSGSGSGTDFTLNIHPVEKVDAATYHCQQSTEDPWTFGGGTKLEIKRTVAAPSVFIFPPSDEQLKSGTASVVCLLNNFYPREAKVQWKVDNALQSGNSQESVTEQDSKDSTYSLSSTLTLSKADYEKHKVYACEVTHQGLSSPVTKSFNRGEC
notes: as for B3
B5: Ly2326 (bispecific antibody, human IgG1, kappa)
chain 1: QVQLQQSGAELVRPGSSVKISCKASGYAFSSYWMNWVKQRPGQGLEWIGQIWPGDGDTNYNGKFKGKATLTADESSSTAYMQLSSLASEDSAVYFCARRETTTVGRYYYAMDYWGQGTTVTVSSASTKGPSVFPLAPSSKSTSGGTAALGCLVKDYFPEPVTVSWNSGALTSGVHTFPAVLQSSGLYSLSSVVTVPSSSLGTQTYICNVNHKPSNTKVDKKVEPKSCDKTHTCPPCPAPEAAGPSVFLFPPKPKDTLMISRTPEVTCVVVDVSHEDPEVKFNWYVDGVEVHNAKTKPREEQYNSTYRVVSVLTVLHQDWLNGKEYKCKVSNKALPAPIEKTISKAKGQPREPQVYTLPPSREEMTKNQVSLWCLVKGFYPSDIAVEWESNGQPENNYKTTPPVLDSDGSFFLYSKLTVDKSRWQQGNVFSCSVMHEALHNHYTQKSLSLSPGGGGGSGGGGSGGGGSGGGGSQVQLVQSGAEVKKPGASVKVSCKASGYTFAGFEMHWVRQAPGQGLEWMGAIDPKTGGTDYNQKFKDRVTMTRDTSISTAYMELSRLRSDDTAVYYCARDLGYFDVWGQGTLVTVSS
chain 2: QVQLQQSGAELVRPGSSVKISCKASGYAFSSYWMNWVKQRPGQGLEWIGQIWPGDGDTNYNGKFKGKATLTADESSSTAYMQLSSLASEDSAVYFCARRETTTVGRYYYAMDYWGQGTTVTVSSASTKGPSVFPLAPSSKSTSGGTAALGCLVKDYFPEPVTVSWNSGALTSGVHTFPAVLQSSGLYSLSSVVTVPSSSLGTQTYICNVNHKPSNTKVDKKVEPKSCDKTHTCPPCPAPEAAGPSVFLFPPKPKDTLMISRTPEVTCVVVDVSHEDPEVKFNWYVDGVEVHNAKTKPREEQYNSTYRVVSVLTVLHQDWLNGKEYKCKVSNKALPAPIEKTISKAKGQPREPQVYTLPPSREEMTKNQVSLSCAVKGFYPSDIAVEWESNGQPENNYKTTPPVLDSDGSFFLVSKLTVDKSRWQQGNVFSCSVMHEALHNRFTQKSLSLSPGGGGGSGGGGSGGGGSGGGGSDIQMTQSPSSLSASVGDRVTITCRASQDIRSNLNWYQQKPGGAVKLLIYYTSRLHSGVPSRFSGSGSGTDYTLTISSLQPEDFATYFCQQSEKLPRTFGGGTKVEIR
light: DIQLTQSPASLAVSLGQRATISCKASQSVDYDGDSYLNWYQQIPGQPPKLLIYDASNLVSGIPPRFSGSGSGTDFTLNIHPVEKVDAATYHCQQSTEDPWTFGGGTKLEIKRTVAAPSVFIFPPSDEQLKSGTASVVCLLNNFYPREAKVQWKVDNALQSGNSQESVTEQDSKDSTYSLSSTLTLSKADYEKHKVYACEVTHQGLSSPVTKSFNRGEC
notes: Bispecific CD19 (two Fabs) / CD137 (terminal Fv)

Tests used:
Experiment in all cases: FCM or ELISA (graded summary table)
B7H3 = target: T1, B7H3
CD19 = target: T2, CD19
CD137 = target: T3, CD137 (UniProt Q07011 24-186, limits assumed)
T3 construct: also called 4-1BB

Binder	binding result (B7H3)	binding result (CD19)	binding result (CD137)
B1	binds		
B2		binds	
B3			binds
B4			binds
B5		binds	binds
